Experimental findings from patent publication US20250297030A1 (SHANDONG SIMCERE BIOPHARMACEUTICAL, published 2025) are described below.

Read-outs that look alike come from different tables or passages of the source.

Experiment [1] addresses T1, Human MUC17 ECD4131-his (His-tagged human MUC17 protein extracellular domain fusion protein) (human, UniProt Q685J3 4131-4393).
T1 construct: a truncation of the extracellular domain; also called human MUC17-his protein; human MUC17-His
The experiment is described as follows: SPR (Biacore 8K), antibody captured on Protein A. As to the method: The strength of antibody-antigen binding was assayed with a BIAcore 8K instrument using an Protein A capture method. First, Protein A was immobilized onto a CM4 chip (purchased from GE, BR-1005-34) using an amino coupling method. According to the instruction of the Amine Coupling Kit (purchased from GE, BR100633), NHS and EDC were mixed with HBS-EP+ pH 7.4 as a mobile phase to activate the chip for about 600 s; the Protein A was diluted to 50 µg/mL with 10 mM sodium acetate (pH 4.5) and injected for 600 s, and finally, the remaining activated sites were blocked with ethanolamine. Then, the affinity of the antibody for the antigen was assayed using a multi-cycle kinetic method; in each cycle, first, the antibody to be tested was captured using the Protein A chip, and then a single concentration of antigen protein was injected. The association and dissociation processes of the antibody with the antigen protein were recorded, and finally, the chip was regenerated using Glycine pH 1.5, wherein the mobile phase was HBS-EP+ (10 mM HEPES, 150 mM NaCl, 3 mM EDTA, 0.05% surfactant P20), the flow rate was […], the regeneration time was 30 s, and the assay temperature was 25° C. Finally, according to a 1:1 binding model, the data were analyzed, and the antibody-antigen binding kinetics parameters, including the association rate constant Ka, the dissociation rate constant Kd, the equilibrium dissociation constant KD, and the maximum binding signal Rmax, were fitted. The association rate (Ka), dissociation rate (Kd), and binding affinity (KD) of the recombinant antibodies Lab315-huFc, Lab316-huFc, Lab320-huFc, Lab331-huFc, and Lab332-huFc with the human MUC17 protein are shown in Table 5.
(Surface plasmon resonance follows binding to a sensor surface in real time, without labels.)

Experiment [2] has as its target T1, Human MUC17 ECD4131-his (His-tagged …). Briefly: ELISA on coated human MUC17 ECD4131-his, OD450. On the procedure: (§1) A human MUC17-his protein was diluted with PBS to a final concentration of […] and then added to a 96-well ELISA plate at 50 µL/well. The plate was incubated at 4° C. overnight. The next day, the plate was washed 2 times with PBST, and a blocking buffer [PBS+2% (w/w) BSA] was added for blocking at room temperature for 2 h. The blocking buffer was discarded, and the recombinant antibody and positive and negative control antibody with a starting concentration of 100 nM serially diluted by 3 folds were added at 50 μL/well. After incubation at 37° C. for 1 h, the plate was washed 3 times with PBST. A horseradish peroxidase (HRP)-labeled secondary antibody (purchased from Merck, Cat. No. AP113P) was added for incubation at 37° C. for 1 h, and the plate was washed 5 times with PBST. A TMB substrate was added at 50 μL/well for incubation at room temperature for 10 min, and then a stop solution (1.0 M HCl) was added at 50 µL/well. The OD₄₅₀ nm values were read by an ELISA plate reader (Multimode Plate Reader, EnSight, purchased from Perkin Elmer).
(ELISA stands for enzyme-linked immunosorbent assay.)

The target is the same in experiment [3]. Briefly: ELISA on coated human MUC17 ECD4131-his, OD450. On the procedure:
as §1
The source holds these as a separate data set.

Experiment [4] concerns the target T2, Cyno MUC17 ECD3577-his (His-tagged cynomolgus monkey MUC17 protein extracellular domain fusion protein) (cynomolgus monkey).
T2 construct: also called monkey MUC17-his protein; monkey MUC17 ECD3577-His
T2 chain: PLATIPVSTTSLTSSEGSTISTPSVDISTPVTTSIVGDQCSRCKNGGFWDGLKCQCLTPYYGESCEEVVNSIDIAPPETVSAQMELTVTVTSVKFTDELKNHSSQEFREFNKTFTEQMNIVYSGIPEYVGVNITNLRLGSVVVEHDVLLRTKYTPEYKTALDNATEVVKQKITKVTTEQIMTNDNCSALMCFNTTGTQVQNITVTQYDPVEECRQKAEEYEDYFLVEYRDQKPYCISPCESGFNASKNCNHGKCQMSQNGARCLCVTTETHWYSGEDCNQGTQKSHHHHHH
Briefly: ELISA on coated monkey MUC17 ECD3577-His, OD450. On the procedure: as §1
(§2) The monkey MUC17-his protein was subjected to ELISA and data analysis according to the method described in Example 3.2. The recombinant antibodies Lab315-huFc, Lab316-huFc, Lab320-huFc, Lab331-huFc, and Lab332-huFc have a relatively good binding activity with the monkey MUC17-his protein.

The target in experiment [5] is T2, Cyno MUC17 ECD3577-his (His-tagged …). The experiment is described as follows: ELISA on coated monkey MUC17 ECD3577-His, OD450. As to the method: as §1, §2
Experiment [6] has the same target. Briefly: ELISA on coated monkey MUC17 ECD3577-His, OD450. As to the method: (§3) To assay the binding activity of the humanized antibodies with the monkey MUC17-his protein, the monkey MUC17-his protein was diluted with PBS to a final concentration of […] and subjected to ELISA assay and data analysis according to the method described in Example 3.3. The humanized antibodies SCR-7724, SCR-7782, SCR-7783, SCR-7784, and SCR-7785 have cross-binding activity with the monkey MUC17 protein, maintaining the binding ability of the recombinant antibody.

Experiment [7] shares this target. Briefly: ELISA on coated monkey MUC17 ECD3577-His, OD450. On the procedure:
as §3

T1 sequence (Q685J3 other isoform, or with tags, fused parts or gaps): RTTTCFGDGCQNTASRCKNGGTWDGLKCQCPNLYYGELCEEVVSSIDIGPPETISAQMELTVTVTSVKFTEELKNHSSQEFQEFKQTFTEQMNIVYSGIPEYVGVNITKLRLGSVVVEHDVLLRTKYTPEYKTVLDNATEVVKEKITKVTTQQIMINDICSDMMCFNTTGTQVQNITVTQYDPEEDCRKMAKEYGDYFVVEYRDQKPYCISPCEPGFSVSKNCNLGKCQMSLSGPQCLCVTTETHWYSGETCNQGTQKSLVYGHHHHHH

B1: 2D11-hIgG1 (antibody, V domains shown)
VH: QVQLVESGGGVVQPGRSLRLSCAASGFTFSNHGMHWVRQAPGKCLEWVAGIWSDASNKYYAEAVKGRFTISRDTSKNTLYLQMNSLRAEDTAVYYCARATYTTGWSYFDYWGQGTLVTVSS
VL: SYELTQSPSVSVSPGQTASITCSGDKLGDKYTSWYQQKPGQSPVLVIYHDRKRPSGIPERFSGSNSGNTATLTISGTQAMDEADYYCQAYDRSTAWVFGCGTKLTVLR
notes: Control antibody from WO2019133961A1, expressed as human IgG1 + kappa; also called 21D11; MUC17 control antibody
What is called Kd is the equilibrium constant for the complex coming apart. A word on the koff: it is the first-order rate constant of dissociation. Usually kon stands for the second-order rate constant of association. Broadly, the EC50 (read off the curve) is the concentration that produces a half-maximal response. B1: in experiment [1], the dissociation constant (Kd) is 7.12 nM. In experiment [1], the dissociation rate constant (koff) stood at 0.000753 s⁻¹. The molecule further showed an on-rate constant (kon) in experiment [1] of 106000 M⁻¹ s⁻¹. Also, the half-maximal effective concentration (EC50 (read off the curve)) was roughly 0.02 nM in experiment [2]; roughly 0.03 nM in experiment [3]; roughly 0.03 nM in experiment [4]; roughly 0.01 nM in experiment [5]; roughly 0.01 nM in experiment [6]; roughly 0.01 nM in experiment [7].
